Binding result and Kd data for six molecules are collected here from publication PMC13286378, “The SPN-4 Rbfox RNA-binding protein selects maternal mRNAs for CCR4-NOT-dependent clearance in early Caenorhabditis elegans embryos”.

T1: SPN-4 RRM (3xFLAG::SPN-4 RRM::6xHis) (Caenorhabditis elegans, UniProt G5EF02 1-200)
T1 sequence: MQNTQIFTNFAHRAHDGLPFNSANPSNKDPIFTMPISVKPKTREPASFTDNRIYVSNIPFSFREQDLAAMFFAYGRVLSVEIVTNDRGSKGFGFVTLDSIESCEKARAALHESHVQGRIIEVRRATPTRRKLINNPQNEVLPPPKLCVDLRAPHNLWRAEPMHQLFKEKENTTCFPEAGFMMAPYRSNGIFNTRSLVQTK

B1: lin-41(995-1054) (ssRNA)
RNA: GUGCCCUAGCGCUAAAUAUUGUUUUAUUUUAAUGCAUGCUUCCUGCACGCCCCUCCCCCU

One data set has as its target T1, SPN-4 RRM (3xFLAG::SPN-4 RRM::6xHis). Briefly: EMSA; did not bind specifically; 10 mM Tris-HCl pH 7.5, 150 mM NaCl, 0.001% NP-40, 10% glycerol, 0.01 mg/ml tRNA, 0.025% Tween-20; 32 nM RNA, 50 nM-2.9 uM protein; 15 min, room temperature; 8%. The following applies: protein: recombinant; tags: N-terminal 3xFLAG (MBP removed by TEV), C-terminal 6xHis; label: 5' Cy5.
Turning to AUUAGUAUUAUUAUUAUUACAAACUCUUACCUCAUCUCUC (ssRNA) [chs-1(40-79) Rbfox mutant control], the binding result is “no binding”.

The next data set shares this target. As to the kind of experiment: EMSA; 10 mM Tris-HCl pH 7.5, 150 mM NaCl, 0.001% NP-40, 10% glycerol, 0.01 mg/ml tRNA, 0.025% Tween-20; 32 nM RNA, 50 nM-2.9 uM protein; 15 min, room temperature; 8%. Particulars: protein: recombinant; tags: N-terminal 3xFLAG (MBP removed by TEV), C-terminal 6xHis; label: 5' Cy5. On the technique in general: A gel shift assay detects complexes by their altered migration in electrophoresis.
On to UUAAUGCAUGCUUCCUACAAACCCC (ssRNA) [lin-41(1023-1047) motif 1], for which the Kd (commonly the equilibrium constant for the complex coming apart) was 230 ± 8.1 nM.
Same read-out and setting: the result for UUAAUACAAACUUCCUGCACGCCCC (ssRNA) [lin-41(1023-1047) motif 2] reads 1640 ± 146 nM; that for AUUAGUAUUAUUAUUAUUGCAUGCUCUUACCUCAUCUCUC (ssRNA) [chs-1(40-79)], 174 ± 13.5 nM; that for UUAAUGCAUGCUUCCUGCACGCCCC (ssRNA) [lin-41(1023-1047)], 285 ± 29.4 nM.
Same read-out and setting: for B1 the value was 308 ± 17.9 nM.
